In patent US20130315910A1 (Xencor, published 2013):
One block for each binder: values may come before it.

Assays:
[1] = molecular target: T1, human FcγRIIb receptor protein (R&D Systems) (human, UniProt P31994 46-217); assay: SPR
T1 construct: Bought protein injected over captured antibody in Biacore; also called CD32b
T1 sequence (looked up): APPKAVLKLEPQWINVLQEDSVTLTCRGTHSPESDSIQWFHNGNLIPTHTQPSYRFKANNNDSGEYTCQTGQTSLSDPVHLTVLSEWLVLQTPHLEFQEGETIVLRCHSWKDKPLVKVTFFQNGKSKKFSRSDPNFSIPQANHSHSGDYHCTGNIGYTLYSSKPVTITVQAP

[2] = molecular target: T2, human FcγRIIa (131R), His- and GST-tagged (human, UniProt P12318 34-217); assay: SPR
T2 construct: Expressed in HEK293T cells, purified by nickel chromatography; also called R131 FcγRIIa; not shown: 6xHis and GST tags of the pTT5 vector
T2 sequence (looked up): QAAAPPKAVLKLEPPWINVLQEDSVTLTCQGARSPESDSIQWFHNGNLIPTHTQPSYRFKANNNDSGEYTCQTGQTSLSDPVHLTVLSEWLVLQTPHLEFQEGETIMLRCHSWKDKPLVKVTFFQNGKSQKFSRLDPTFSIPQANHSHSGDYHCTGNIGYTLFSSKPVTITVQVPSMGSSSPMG

mFcγRIIb = molecular target: T3, mFcγRIIb (Mus musculus, UniProt P08101); assay: SPR
T3 construct: extracellular region, C-terminal His- and GST-tag; also called mouse FcγRII
T3 sequence (receptor extracellular region, looked up): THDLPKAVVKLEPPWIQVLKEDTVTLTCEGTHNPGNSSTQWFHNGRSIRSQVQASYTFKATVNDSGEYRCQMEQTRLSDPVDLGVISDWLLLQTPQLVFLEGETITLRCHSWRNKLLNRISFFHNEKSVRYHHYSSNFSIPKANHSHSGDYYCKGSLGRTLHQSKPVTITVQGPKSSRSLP

cynoFcγRIIb = molecular target: T4, cynoFcγRIIb (Macaca fascicularis, UniProt A0A140HDP4); assay: SPR, Kd
T4 construct: extracellular region, C-terminal His- and GST-tag; also called cynomolgus monkey FcγRIIb
T4 sequence (receptor extracellular region): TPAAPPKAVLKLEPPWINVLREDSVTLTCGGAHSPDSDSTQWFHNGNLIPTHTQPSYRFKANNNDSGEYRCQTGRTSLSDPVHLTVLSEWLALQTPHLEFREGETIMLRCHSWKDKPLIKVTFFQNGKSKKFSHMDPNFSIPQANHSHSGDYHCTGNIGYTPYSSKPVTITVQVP
Description: Variants were screened for receptor affinity using Biacore™ technology, also referred to as Biacore herein, a surface plasmon resonance (SPR) based technology for studying biomolecular interactions in real time. SPR measurements were performed using a Biacore 3000 instrument (Biacore, Piscataway, N.J.). A protein A/G (Pierce Biotechnology) CM5 biosensor chip (Biacore) was generated using a standard primary amine coupling protocol. All measurements were performed using HBS-EP buffer (10 mM HEPES pH 7.4, 0.15 M NaCl, 3 mM EDTA, 0.005% vol/vol surfactant P20, Biacore). Antibodies at 20 nM or 50 nM in HBS-EP buffer were immobilized on the protein A/G surface and FcγRs were injected. After each cycle, the surface was regenerated by injecting glycine buffer (10 mM, pH 1.5). Data were processed by zeroing time and response before the injection of FcγR and by subtracting appropriate nonspecific signals (response of reference channel and injection of running buffer). Kinetic analyses were performed by global fitting of binding data with a 1:1 Langmuir binding model using BIAevaluation software (Biacore).
Variant antibodies were tested for their affinity to mouse or cynologous monkey FcγRs using Biacore SPR as described above. Specifically, antibodies were first immobilized on a protein A/G chip to high density, and then followed by injections of the extracellular domain of the mouse or cynologous monkey FcγR of interest. Both association and dissociation phases were tracked in real time using the Biacore technology.

[3] = molecular target: T5, human FcγRI receptor protein (R&D Systems) (human, UniProt P12314 16-288); assay: SPR
T5 construct: also called soluble FcγRI; solFcγRI
T5 sequence (P12314 16-288 limits assumed): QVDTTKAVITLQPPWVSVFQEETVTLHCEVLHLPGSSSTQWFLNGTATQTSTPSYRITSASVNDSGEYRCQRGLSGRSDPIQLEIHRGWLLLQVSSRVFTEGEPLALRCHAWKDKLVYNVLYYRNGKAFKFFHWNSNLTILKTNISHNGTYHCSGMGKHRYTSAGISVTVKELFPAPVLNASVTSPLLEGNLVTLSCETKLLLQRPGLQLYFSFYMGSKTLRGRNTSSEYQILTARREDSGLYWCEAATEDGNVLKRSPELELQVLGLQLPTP

[4] = molecular target: T6, human FcγRIIa (131H), His- and GST-tagged (human, UniProt P12318 34-217); assay: SPR
T6 construct: also called H131 FcγRIIa; HIIa; not shown: 6xHis and GST tags of the pTT5 vector
T6 sequence (looked up): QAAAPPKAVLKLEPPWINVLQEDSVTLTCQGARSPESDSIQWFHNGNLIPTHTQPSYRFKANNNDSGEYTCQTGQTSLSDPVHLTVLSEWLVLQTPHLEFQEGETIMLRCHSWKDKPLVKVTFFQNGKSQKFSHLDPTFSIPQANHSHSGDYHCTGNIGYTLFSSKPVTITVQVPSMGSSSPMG

[5] = molecular target: T7, human FcγRIIIa (158V), His- and GST-tagged (human, UniProt P08637 17-208); assay: SPR
T7 construct: also called V158 FcγRIIIa; VIIIa; not shown: 6xHis and GST tags of the pTT5 vector
T7 sequence (P08637 17-208 F176V): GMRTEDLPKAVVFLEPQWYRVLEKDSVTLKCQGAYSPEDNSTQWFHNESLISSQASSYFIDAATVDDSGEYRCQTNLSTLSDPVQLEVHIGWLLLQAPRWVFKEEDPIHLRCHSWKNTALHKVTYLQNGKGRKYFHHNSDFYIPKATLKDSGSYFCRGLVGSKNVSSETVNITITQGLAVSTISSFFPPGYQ

[6] = molecular target: T8, human FcγRIIb on cells (transfected HEK293T cells; primary human B cells) (human, UniProt P31994 43-310); assay: flow cytometry on FcγRIIb-transfected 293T cells [middle left panel]
T8 construct: whole, on cells; also called CD32b
T8 sequence (looked up): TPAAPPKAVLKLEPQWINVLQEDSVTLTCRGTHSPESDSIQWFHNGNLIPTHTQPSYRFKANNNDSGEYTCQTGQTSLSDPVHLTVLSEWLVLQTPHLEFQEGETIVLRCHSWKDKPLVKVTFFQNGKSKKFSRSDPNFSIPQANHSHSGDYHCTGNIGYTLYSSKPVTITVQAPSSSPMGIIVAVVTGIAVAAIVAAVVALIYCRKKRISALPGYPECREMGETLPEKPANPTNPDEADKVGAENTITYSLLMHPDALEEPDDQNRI
Description: In order to validate the Biacore data and evaluate receptor binding of the variants on the cell surface, binding of select antibodies to cells expressing FcγRIIb was measured. […] HEK293T cells in DMEM with 10% FBS were transfected with human FcγRIIb cDNA in pCMV6 expression vector (Origene Technologies, Rockville, Md.), cultured for 3 days, harvested, washed twice in PBS, resuspended in PBS with 0.1% BSA (PBS/BSA), and aliquoted at 2×10^5 cells per well into 96-well microtiter plates. Fc variant antibodies were serially diluted in PBS/BSA then added to the cells and incubated with mixing for 1 h at room temperature. After extensive washing with PBS/BSA, phycoerythrin (PE)-labeled anti-human-Fab-specific goat F(ab′)2 fragment was added for detection. Cells were incubated for 30 min at room temperature, washed, and resuspended in PBS/BSA. Binding was evaluated using a FACSCanto II flow cytometer (BD Biosciences, San Jose, Calif.), and the mean fluorescence intensity (MFI) was plotted as a function of antibody concentration using Graph Pad Prism software (GraphPad Software, San Diego, Calif.) from which half-maximal binding (EC50) values were determined by sigmoidal dose response modeling.

B1: L234W/G236D/S239E/S267E (antibody, human IgG1, kappa)
heavy: EVQLVESGGGLVKPGGSLKLSCAASGYTFTSYVMHWVRQAPGKGLEWIGYINPYNDGTKYNEKFQGRVTISSDKSISTAYMELSSLRSEDTAMYYCARGTYYYGTRVFDYWGQGTLVTVSSASTKGPSVFPLAPSSKSTSGGTAALGCLVKDYFPEPVTVSWNSGALTSGVHTFPAVLQSSGLYSLSSVVTVPSSSLGTQTYICNVNHKPSNTKVDKKVEPKSCDKTHTCPPCPAPEWLDGPEVFLFPPKPKDTLMISRTPEVTCVVVDVEHEDPEVKFNWYVDGVEVHNAKTKPREEQYNSTYRVVSVLTVLHQDWLNGKEYKCKVSNKALPAPIEKTISKAKGQPREPQVYTLPPSREEMTKNQVSLTCLVKGFYPSDIAVEWESNGQPENNYKTTPPVLDSDGSFFLYSKLTVDKSRWQQGNVFSCSVMHEALHNHYTQKSLSLSPGK
light: DIVMTQSPATLSLSPGERATLSCRSSKSLQNVNGNTYLYWFQQKPGQSPQLLIYRMSNLNSGVPDRFSGSGSGTEFTLTISSLEPEDFAVYYCMQHLEYPITFGAGTKLEIKRTVAAPSVFIFPPSDEQLKSGTASVVCLLNNFYPREAKVQWKVDNALQSGNSQESVTEQDSKDSTYSLSSTLTLSKADYEKHKVYACEVTHQGLSSPVTKSFNRGEC
notes: HuAM4G7 anti-CD19 IgG1 (m1) with these Fc substitutions, EU index; copies: 2 + 2
- Fold vs WT IgG1 [1]: 11.4 fold
- Kd [1]: 129 nM
- Fold vs WT IgG1 [2]: 5.69 fold
- Kd [2]: 151 nM
- Fold vs WT IgG1 (Kd) (mFcγRIIb): 0.029 fold
- binding result (cynoFcγRIIb): no binding

B3: anti-CD19 antibody HuAM4G7 IgG1 S267E/H268E (antibody)
heavy: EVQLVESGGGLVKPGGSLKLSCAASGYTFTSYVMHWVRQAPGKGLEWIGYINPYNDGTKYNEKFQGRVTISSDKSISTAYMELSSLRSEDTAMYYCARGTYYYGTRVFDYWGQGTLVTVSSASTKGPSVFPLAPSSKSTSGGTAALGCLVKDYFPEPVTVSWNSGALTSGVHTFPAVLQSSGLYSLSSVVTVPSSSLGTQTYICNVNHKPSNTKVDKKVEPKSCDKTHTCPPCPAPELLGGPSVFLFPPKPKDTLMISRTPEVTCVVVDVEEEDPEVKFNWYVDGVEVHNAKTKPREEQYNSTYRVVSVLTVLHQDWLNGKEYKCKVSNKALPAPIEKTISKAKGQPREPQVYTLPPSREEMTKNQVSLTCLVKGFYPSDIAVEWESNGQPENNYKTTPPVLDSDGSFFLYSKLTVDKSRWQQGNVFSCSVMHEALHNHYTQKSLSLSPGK
light: DIVMTQSPATLSLSPGERATLSCRSSKSLQNVNGNTYLYWFQQKPGQSPQLLIYRMSNLNSGVPDRFSGSGSGTEFTLTISSLEPEDFAVYYCMQHLEYPITFGAGTKLEIKRTVAAPSVFIFPPSDEQLKSGTASVVCLLNNFYPREAKVQWKVDNALQSGNSQESVTEQDSKDSTYSLSSTLTLSKADYEKHKVYACEVTHQGLSSPVTKSFNRGEC
notes: Positions in EU numbering; copies: 2 + 2
- Fold vs WT IgG1 [1]: 40.6 fold
- Kd [1]: 36.1 nM
- Fold vs WT IgG1 [3]: 3.52 fold
- Kd [3]: 0.0935 nM
- Fold vs WT IgG1 [2]: 41.7 fold
- Kd [2]: 20.6 nM
- Fold vs WT IgG1 [4]: 0.765 fold
- Kd [4]: 845 nM
- Fold vs WT IgG1 [5]: 3.15 fold
- Kd [5]: 60.8 nM
- EC50 (read off the curve) [6]: ~10 ng/mL

B5: V266M/S267E (antibody, human IgG1, kappa)
heavy: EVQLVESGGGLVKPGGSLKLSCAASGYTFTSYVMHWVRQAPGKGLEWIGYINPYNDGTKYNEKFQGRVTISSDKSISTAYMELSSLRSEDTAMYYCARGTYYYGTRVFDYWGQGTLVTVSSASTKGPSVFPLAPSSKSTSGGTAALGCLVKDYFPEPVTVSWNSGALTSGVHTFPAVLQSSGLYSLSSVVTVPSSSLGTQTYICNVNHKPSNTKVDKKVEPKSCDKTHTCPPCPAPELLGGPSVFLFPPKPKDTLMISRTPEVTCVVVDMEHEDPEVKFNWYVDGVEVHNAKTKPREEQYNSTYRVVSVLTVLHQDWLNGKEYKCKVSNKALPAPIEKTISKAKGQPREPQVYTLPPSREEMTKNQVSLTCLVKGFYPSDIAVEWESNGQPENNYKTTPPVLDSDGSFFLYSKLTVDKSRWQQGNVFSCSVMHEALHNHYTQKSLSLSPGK
light: DIVMTQSPATLSLSPGERATLSCRSSKSLQNVNGNTYLYWFQQKPGQSPQLLIYRMSNLNSGVPDRFSGSGSGTEFTLTISSLEPEDFAVYYCMQHLEYPITFGAGTKLEIKRTVAAPSVFIFPPSDEQLKSGTASVVCLLNNFYPREAKVQWKVDNALQSGNSQESVTEQDSKDSTYSLSSTLTLSKADYEKHKVYACEVTHQGLSSPVTKSFNRGEC
notes: as for B1
- Fold vs WT IgG1 [1]: 29.2 fold
- Kd [1]: 50.2 nM
- Fold vs WT IgG1 [3]: 1.98 fold
- Kd [3]: 0.166 nM
- Fold vs WT IgG1 [2]: 30.7 fold
- Kd [2]: 28 nM
- Fold vs WT IgG1 [4]: 10.9 fold
- Kd [4]: 59.2 nM
- Fold vs WT IgG1 [5]: 0.0448 fold
- Kd [5]: 4270 nM
- EC50 (read off the curve) [6]: ~10 ng/mL

The remaining lines, values ahead:

- binding result [1]: no binding
- Fold vs WT IgG1 (Kd) (mFcγRIIb): 2.63 fold
- binding result (cynoFcγRIIb): no binding
B2: A330D (antibody, human IgG1, kappa)
heavy: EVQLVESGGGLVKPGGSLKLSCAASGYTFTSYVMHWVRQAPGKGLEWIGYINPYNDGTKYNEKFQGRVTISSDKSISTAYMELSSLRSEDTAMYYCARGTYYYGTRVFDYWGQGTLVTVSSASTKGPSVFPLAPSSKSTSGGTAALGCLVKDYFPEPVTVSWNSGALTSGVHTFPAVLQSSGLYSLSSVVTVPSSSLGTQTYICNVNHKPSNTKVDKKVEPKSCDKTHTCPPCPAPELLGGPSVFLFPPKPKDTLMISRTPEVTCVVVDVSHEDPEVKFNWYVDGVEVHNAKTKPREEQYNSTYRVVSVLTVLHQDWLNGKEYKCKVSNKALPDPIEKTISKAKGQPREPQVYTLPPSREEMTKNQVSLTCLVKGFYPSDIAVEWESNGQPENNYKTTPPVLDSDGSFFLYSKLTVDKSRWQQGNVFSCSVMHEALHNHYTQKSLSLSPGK
light: DIVMTQSPATLSLSPGERATLSCRSSKSLQNVNGNTYLYWFQQKPGQSPQLLIYRMSNLNSGVPDRFSGSGSGTEFTLTISSLEPEDFAVYYCMQHLEYPITFGAGTKLEIKRTVAAPSVFIFPPSDEQLKSGTASVVCLLNNFYPREAKVQWKVDNALQSGNSQESVTEQDSKDSTYSLSSTLTLSKADYEKHKVYACEVTHQGLSSPVTKSFNRGEC
notes: HuAM4G7 anti-CD19 IgG1 (m1) with this Fc substitution, EU index; copies: 2 + 2

- binding result [1]: no binding
- Fold vs WT IgG1 (Kd) (mFcγRIIb): 0.013 fold
- binding result (cynoFcγRIIb): no binding
B4: A330H (antibody, human IgG1, kappa)
heavy: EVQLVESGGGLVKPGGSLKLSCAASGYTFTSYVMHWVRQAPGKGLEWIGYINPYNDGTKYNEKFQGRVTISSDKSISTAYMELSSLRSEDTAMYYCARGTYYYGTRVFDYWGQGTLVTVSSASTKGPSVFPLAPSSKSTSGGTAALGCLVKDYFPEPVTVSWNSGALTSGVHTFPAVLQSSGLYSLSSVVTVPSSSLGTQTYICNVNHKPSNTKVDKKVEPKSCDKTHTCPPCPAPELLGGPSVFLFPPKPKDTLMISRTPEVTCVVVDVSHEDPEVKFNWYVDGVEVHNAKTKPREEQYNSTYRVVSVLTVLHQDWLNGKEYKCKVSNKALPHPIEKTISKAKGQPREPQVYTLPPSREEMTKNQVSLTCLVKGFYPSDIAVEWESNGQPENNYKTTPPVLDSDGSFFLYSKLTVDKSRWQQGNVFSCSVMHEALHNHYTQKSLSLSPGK
light: DIVMTQSPATLSLSPGERATLSCRSSKSLQNVNGNTYLYWFQQKPGQSPQLLIYRMSNLNSGVPDRFSGSGSGTEFTLTISSLEPEDFAVYYCMQHLEYPITFGAGTKLEIKRTVAAPSVFIFPPSDEQLKSGTASVVCLLNNFYPREAKVQWKVDNALQSGNSQESVTEQDSKDSTYSLSSTLTLSKADYEKHKVYACEVTHQGLSSPVTKSFNRGEC
notes: as for B2

- binding result [1]: no binding
- Fold vs WT IgG1 (Kd) (mFcγRIIb): 0.016 fold
- binding result (cynoFcγRIIb): no binding
B6: L328E (antibody, human IgG1, kappa)
heavy: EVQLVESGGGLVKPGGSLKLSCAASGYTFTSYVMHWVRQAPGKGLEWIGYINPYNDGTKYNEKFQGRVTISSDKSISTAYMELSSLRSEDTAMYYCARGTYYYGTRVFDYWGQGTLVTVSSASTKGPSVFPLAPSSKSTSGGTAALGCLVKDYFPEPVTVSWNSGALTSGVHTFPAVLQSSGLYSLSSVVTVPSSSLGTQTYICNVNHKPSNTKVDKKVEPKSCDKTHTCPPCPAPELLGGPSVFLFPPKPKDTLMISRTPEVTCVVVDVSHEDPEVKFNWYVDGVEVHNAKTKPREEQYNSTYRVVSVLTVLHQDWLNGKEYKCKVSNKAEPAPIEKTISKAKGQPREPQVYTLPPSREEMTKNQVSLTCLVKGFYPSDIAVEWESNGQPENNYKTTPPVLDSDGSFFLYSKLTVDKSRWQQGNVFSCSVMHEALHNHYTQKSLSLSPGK
light: DIVMTQSPATLSLSPGERATLSCRSSKSLQNVNGNTYLYWFQQKPGQSPQLLIYRMSNLNSGVPDRFSGSGSGTEFTLTISSLEPEDFAVYYCMQHLEYPITFGAGTKLEIKRTVAAPSVFIFPPSDEQLKSGTASVVCLLNNFYPREAKVQWKVDNALQSGNSQESVTEQDSKDSTYSLSSTLTLSKADYEKHKVYACEVTHQGLSSPVTKSFNRGEC
notes: as for B2
